B1: Tremelimumab (antibody)
VL: PSSLSASVGDRVTITCRASQSINSYLDWYQQKPGKAPKLLIYAASSLQSGVPSRFSGSGSGTDFTLTISSLQPEDFATYYCQQYYSTPFTFGPGTKVEIKRTVAAPSVFIFPPSDEQLKSGTASVVCLLNNFYPREAKV
VH: GVVQPGRSLRLSCAASGFTFSSYGMHWVRQAPGKGLEWVAVIWYDGSNKYYADSVKGRFTISRDNSKNTLYLQMNSLRAEDTAVYYCARDPRGATLYYYYYGMDVWGQGTTVTVSSASTKGPSVFPLAPCSRSTSESTAALGCLVKDYFPEPVTVSWNSGALTSGVH
modifications: light chain variable region; heavy chain variable region
notes: anti-CTLA-4 antibody; arm T = tremelimumab 750 mg monotherapy

Experiments:
Type in all cases: in vivo, human
[1] = system: peripheral blood T cell receptors (TCRs); experiment: Molecular analysis of peripheral blood T cell receptors (TCR clonal expansion); details: for Median expanded T cell clones at Day 29, n: Day 29, first cycle of Q4W dosing, spread in cell beside
Excerpt: This trend was not seen with monotherapy D or the lower dose T combination (T75+D) (FIG. 15). Additionally, greater clonal expansion of T-cells was associated with better OS and seen in D+T combination arms (FIG. 16).

advanced HCC = experiment: Randomized, open-label, multi-center clinical study of durvalumab and tremelimumab (Example 2): efficacy; details: for ORR, % / Median (95% CI) OS, mo: Table 1, per study arm; for Median (95% CI) OS, mo: 95% CI in cell beside; for Median PFS (95% CI): patients with advanced HCC
Method: The study disclosed below is a randomized, open-label, multi-center, global, clinical study to assess the efficacy and safety of durvalumab monotherapy and durvalumab plus tremelimumab combination therapy versus sorafenib in the treatment of immune checkpoint inhibitor-naïve patients with HCC who progressed on, were intolerant to, or refused sorafenib. In the foregoing disclosure, a flat-dose regimen of 1500 mg (approximately equivalent to 20 mg/kg) of durvalumab plus 300 mg (equivalent to 4 mg/kg) of tremelimumab was used in this study.
The study population included patients 18 years of age or older with advanced HCC, Barcelona Clinic Liver Cancer Stage B (not eligible for locoregional therapy) or stage C, and Child-Pugh A classification liver disease. Patients must not have received any prior systemic therapy for HCC. Patients were stratified according to macrovascular invasion (yes versus no), etiology of liver disease (hepatitis B virus [confirmed HBV] versus hepatitis C virus [confirmed HCV] versus others), and performance status (Eastern Cooperative Oncology Group [ECOG] 0 versus 1).
A total of 332 patients were enrolled (T300+D, n=75; durvalumab, n=104; tremelimumab, n=69; T75+D, n=84). Patients were randomized in an equal ratio to groups treated with durvalumab 1500 mg monotherapy (D), tremelimumab 750 mg monotherapy (T), combination therapy with durvalumab 1500 mg plus tremelimumab 75 mg×4 doses (T75+D) followed by durvalumab Q4W, combination therapy with durvalumab 1500 mg plus tremelimumab 300 mg xl dose (T 300+D) followed by durvalumab Q4W. Upon closure to further enrollment into the T75+D arm, patients were randomized in an equal ratio to groups treated with D, T300+D, and Sorafenib. Durvalumab and tremelimumab were administered via intravenous (IV) infusion every 4 weeks (Q4W). Sorafenib was administered orally BID (see FIGS. 3 and 4).
(§1) Tremelimumab 750 mg via IV infusion Q4W starting at Week 0 for seven doses and then Q12W until confirmed PD, unacceptable toxicity, or any discontinuation criterion was met. (Note: If a patient's weight decreased to ≤30 kg, the patient received weight-based dosing of tremelimumab 10 mg/kg Q4W, until the weight increased to >30 kg, at which point the patient received the flat dose of tremelimumab 750 mg Q4W).
as §1, with “Durvalumab 1500 mg monotherapy • Durvalumab 1500” for “Tremelimumab 750”, “0” for “0 for seven doses and then Q12W”, “durvalumab 20” for “tremelimumab 10”, “durvalumab 1500” for “tremelimumab 750”, “Q4W.)” for “Q4W).”
Durvalumab 1500 mg plus tremelimumab 75 mg×4 doses combination therapy (Arm B) • Durvalumab 1500 mg plus tremelimumab 75 mg×4 doses starting at Week 0, followed by durvalumab 1500 mg monotherapy Q4W starting 4 weeks after the final infusion of the combination therapy until confirmed PD, unacceptable toxicity, or any discontinuation criteria was met. (Note: If a patient's weight decreased to 30 kg or below (≤30 kg), the patient received weight-based dosing of durvalumab 20 mg/kg Q4W and tremelimumab 1 mg/kg Q4W, until the weight increased to >30 kg, at which point the patient received the original assigned flat dose of durvalumab 1500 mg Q4W with or without tremelimumab 75 mg Q4W.)
Durvalumab 1500 mg plus tremelimumab 300 mg×1 dose combination therapy (Arm C) • Durvalumab 1500 mg plus tremelimumab 300 mg×1 dose starting at Week 0, followed by durvalumab 1500 mg monotherapy Q4W starting 4 weeks after the first and final infusion of the combination therapy until confirmed PD, unacceptable toxicity, or any discontinuation criteria was met. […]

[2] = system: proliferating CD8+Ki67+ T cells; experiment: Exposure-response model: tremelimumab exposure versus proliferating CD8+Ki67+ T cells
Method: (§2) Finally, an exposure-response model was developed to describe the relationship between tremelimumab exposure and proliferating CD8+Ki67+ T cells in patients with uHCC. Relationships between tremelimumab trough concentration after the first dose (Cmin) and the maximum change from baseline (CFB) for CD8+ Ki67+ T cell counts were evaluated using linear and non-linear regression models. Covariate effects were evaluated on the model intercept and the drug effect (Emax) using a stepwise search approach. The relationship between CD8+ Ki67+ T cell count CFB and tremelimumab trough concentration was best described by an Emax model. The only statistically significant and well estimated covariate effect was the baseline CD8+ Ki67+ T cell count on Emax. The maximum effect was higher in patients with lower baseline CD8+ Ki67+ T cell counts and lower in patients with higher baseline CD8+ Ki67+ T cell counts. At the 10th, median, and 90th percentiles of baseline CD8+ (3, 9, and 25 cells/uL), the maximum effect is 593%, 341%, and 77.9% change from baseline, respectively.

[3] = Tremelimumab trough concentration after the first dose (Cmin); details: 300 mg tremelimumab
Method: as §2

| Molecule | clonal expansion of T cells in responders compared to non-responders ([1]; Day 29) | Median expanded T cell clones at Day 29, n [1] | median increased T-cell clonal expansion, difference between arms ([1]; day 29, D versus T75+D arms) | ORR, % (advanced HCC) [%] | Median (95% CI) OS, mo (advanced HCC) [mo] | Median PFS (95% CI) (advanced HCC) | maximum effect (Emax), change from baseline of CD8+ Ki67+ T cell count ([2]; 10th percentile of baseline CD8+ (3 cells/uL)) [%] | maximum effect (Emax), change from baseline of CD8+ Ki67+ T cell count ([2]; 90th percentile of baseline CD8+ (25 cells/uL)) [%] | estimated half-maximal effective concentration (EC50) ([2]; Emax model, Cmin versus maximum change from baseline of CD8+ Ki67+ T cell counts, uHCC patients) [µg/mL] | maximum effect (Emax), change from baseline of CD8+ Ki67+ T cell count ([2]; median baseline CD8+ (9 cells/uL)) [%] | median Cmin [3] [ng/mL] |
| --- | --- | --- | --- | --- | --- | --- | --- | --- | --- | --- | --- |
| Durvalumab [reference compound] | not seen | 32 | no significant difference | 10.6 | 13.6 | 2.07 (1.84-2.83) months |  |  |  |  |  |
| B1 |  | 100 |  | 7.2 | 15.1 | 2.69 (1.87-5.29) months | 593 | 77.9 | 5.24 | 341 | 12900 |

Source: patent US20220363762A1, “METHODS AND COMBINATIONS FOR THE TREATMENT OF CANCER USING IMMUNE CHECKPOINT INHIBITOR ANTIBODIES” (ASTRAZENECA AB, priority 2020, published 2022)
